The target of this data set is T1, B. burgdorferi RecA (Borrelia burgdorferi B31, UniProt Q59180 1-365).
T1 sequence: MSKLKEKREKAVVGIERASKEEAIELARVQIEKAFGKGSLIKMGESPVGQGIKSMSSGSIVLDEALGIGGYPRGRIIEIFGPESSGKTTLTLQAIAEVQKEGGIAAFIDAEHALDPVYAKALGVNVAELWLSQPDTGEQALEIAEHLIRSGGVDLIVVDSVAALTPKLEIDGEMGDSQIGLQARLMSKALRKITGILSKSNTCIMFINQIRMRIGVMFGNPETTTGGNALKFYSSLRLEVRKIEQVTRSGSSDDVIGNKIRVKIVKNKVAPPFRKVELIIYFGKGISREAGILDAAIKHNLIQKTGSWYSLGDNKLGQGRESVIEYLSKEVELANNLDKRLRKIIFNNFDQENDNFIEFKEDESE
The data set can be described thus: EMSA with glutaraldehyde protein-protein crosslinking; 2 mM Mg2+, 2 mM ATP; affinity increased by ATP, discrete shift and well shifts; 25 mM HEPES pH 7.6, 2 mM MgCl2, 1 mM DTT, 50 mM NaCl, +/- 2 mM ATP; 10 nM DNA molecules; 30°C 5 min, then 0.033% glutaraldehyde 5 min at 20°C/room temperature. The note with it: protein: recombinant; tags: His tag (pET15b NdeI/BamHI, Ni-NTA; N-terminal implied, removal not mentioned); single strand. (In general: In EMSA bound probe runs differently from free probe, usually more slowly.)

B1: OGCB396 95 nt ssDNA (ssDNA)
DNA: TGCAGGCATGCAAGCTTGGCGTAATCATGGTCATAGCTGTTTCCTGTGTGAAATTGTTATCCGCTCACAATTCCACACAACATACGAGCCGGAAG
Consider B1, for which the binding result is listed as “binds”.
